Experimental data from publication PMC8964761.

Experiments:
dimeric suPAR (human) [1] = molecular target: dimeric suPAR (human) (UniProt Q03405); experiment: SEC; suPAR dimer mixed with excess ATF, 30 min at room temperature; complex purified on Superdex 200 10/300 (20 mM Tris pH 7.4, 150 mM KCl) and quantified by SDS-PAGE
dimeric suPAR (human) [2] = molecular target: dimeric suPAR (human) (UniProt Q03405); experiment: SPR; Biacore T200; suPAR monomer or dimer captured on anti-uPAR antibody immobilised on a CM5 chip; ATF (0.14-33.3 nM) or scuPA (0.54-44.4 nM) flowed over; 10 mM HEPES, 150 mM NaCl, 3 mM EDTA, 0.005% P-20, pH 7.4, 20 °C; 1:1 Langmuir fit
FITC conjugated ATF = experiment: high-content fluorescence imaging of FITC-ATF on 293T cells (FITC/mRuby3 intensity ratio); settings: FITC-ATF for 1 h; uPAR-mRuby3 expressing 293T cells; parent: est. 0.41; read off a plot

UniProt Q03405, sequence (Q03405 23-299): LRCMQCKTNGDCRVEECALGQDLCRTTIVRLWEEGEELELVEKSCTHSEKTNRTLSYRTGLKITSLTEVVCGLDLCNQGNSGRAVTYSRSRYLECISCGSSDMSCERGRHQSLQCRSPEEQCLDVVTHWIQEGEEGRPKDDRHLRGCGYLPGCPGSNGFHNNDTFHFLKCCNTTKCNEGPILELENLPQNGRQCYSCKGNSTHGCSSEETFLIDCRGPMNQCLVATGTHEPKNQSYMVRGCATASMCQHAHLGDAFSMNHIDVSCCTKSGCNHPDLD

“amino terminal fragment of uPA (ATF) (domain or fragment)” showed a stoichiometry N (ATF molecules per uPAR dimer) (dimeric suPAR (human) [1]) of 2 and a Kd (dimeric suPAR (human) [2]) of 672 pM.

Work on “uPAR^WT fused with mRuby3 (suPAR-mRuby3-GPI) (from UniProt Q03405) E49P” yielded a response (FITC conjugated ATF) of 0.43.

For “uPAR^WT fused with mRuby3 (suPAR-mRuby3-GPI) (from UniProt Q03405) H47C; N259C”, the response (FITC conjugated ATF) was 0.27.
